Measured values reported in patent US8252338B2, “Synthetic LDL as targeted drug delivery vehicle” (The Regents of the University of California, priority 2005, dated 2012).
Blank lines part the entries; values can stand above or below the compound they belong to.

Legend:
[1] = tested on: HeLa cells; assay: Cell killing by MTT assay, HeLa cells; format: cell-based, human; settings: concentrations up to 50 μM
Description: (§1) sLDL-PO was added to HeLa cells as shown in FIG. 16 and to SF-767 glioblastoma multiforme tumor cells (shown in FIG. 17) at concentrations between 0.05 and 50 μM and cell killing was determined by the MTT assay.

[2] = tested on: SF-767 cells; assay: Cell killing by MTT assay, SF-767 cells; format: cell-based, human; settings: concentrations up to 10 μM
Description: as §1
Cells were grown as in Example 3.

[3] = Peptide association with lipid microemulsion after dialysis; format: physicochemical; settings: 1.27 mg/ml peptide; PL:TO:CO 3:2:1; after extensive dialysis against Tris-saline buffer
Description: The 18-A chimera was utilized for making core-containing synthetic LDL. The procedure reported by Baille et al. (Baillie, G. et al., J Lipid Res 43:69-73 (2002)) was used with modifications. Microemulsions were formed using egg yolk phospholipid (PL), triolein (TO) and cholesteryl olein (CO) (mole ratio of 3:2:1) and 20 μM butylhydroxytoluene (BHT); the microemulsions were extruded through an Avanti miniextruder first using 100 nm polycarbonate filters followed by 30 nm polycarbonate filters. The lipid emulsions were incubated with 1.27 mg/ml 18-A chimera and lipid association determined after extensive dialysis against Tris-saline buffer to remove uncomplexed peptide. Approximately 85% of the added synthetic peptide remained associated with the lipid emulsions.
Characterization: Composition of particles was determined using the Markwell modification of the Lowry protein assay and enzymatic colorimetric assays for PL, TO and CO (Wako Kits). Size was determined by column chromatography using a Superose 6 fast protein liquid chromatography (FPLC) column. Samples were run at a flow rate of 0.5 mL/min and absorbance read at 280 nm. Referring now to FIG. 4, the composition of the synthetic LDL was characterized as 32% peptide, 68% lipid. 82%±9% of peptide (n=11) remained bound after dialysis. […]

[4] = Phospholipid binding of peptides, PC-cholate micelles, cholate dialysis; format: physicochemical; settings: overnight incubation, dialysis (cutoff 10,000 MW)
Description: The ability of the peptides to bind phospholipids was tested first. Phospholipid binding was used as a rapid screen for a peptide's ability to bind to the surface of a synthetic LDL-like nanoparticle. To make phospholipid complexes with peptides, egg yolk phosphatidylcholine (PC) and the cholate dialysis method were used similarly to what was previously employed to make synthetic nascent HDL particles (Segrest, J. P. et al., J. Lipid Res 33:141-166 (1992)). The PC-cholate micelles were incubated with the peptide overnight and then extensively dialyzed (dialysis membrane cutoff, 10,000 MW) to remove cholate and unbound peptide. The percent bound peptide, i.e., peptide that remains associated with the lipid micelles, was determined for each peptide and was 8%, 15% and 33%, for B-peptide, 11-A chimera and 18-A chimera, respectively. The B-peptide had poor lipid binding ability while the 11-mer peptide has low lipid binding compared to the 18-A chimera.

[5] = Density distribution of lipidated 18-A chimera by sequential ultracentrifugation; format: physicochemical
Description: Studies were carried out to determine (1) whether the synthetic LDL represent a single population of particles and (2) whether the LDLR binding domain remains accessible after the peptide is associated with the lipid. To determine what types of synthetic LDL particles were generated, the lipidated 18-A chimera was subjected to sequential ultracentrifugation at density (d) 1.063 g/ml to isolate particles equivalent to, or less dense than, native LDL. Subsequently the solution was adjusted to d 1.21 g/ml to isolate particles in the d 1.063-1.21 g/ml range and those in the d>1.21 g/ml range. The latter particles are considered lipid-poor complexes while the d 1.063-1.21 particles are in the size and density range of high density lipoproteins (HDL). […] This was an unexpected finding but is very encouraging since smaller sized complexes will be better able to diffuse through the tumor mass than larger particles. The formation of small high density complexes is reproducible since it occurred with two separate batches of synthetic 18-A chimera complexes.
To determine the distribution of lipid complexes in various density classes, sequential ultracentrifugation techniques were employed (Lindgren, F. T. et al., In Blood Lipids and Lipoproteins: Quantification, Composition and Metabolism (Nelson, G. J., ed.) pp. 181-274, John Wiley, New York (1972)); this preparative procedure is routinely used in our laboratory and is the classical method for isolation of LDL and other lipoproteins. The first centrifugation was performed at d 1.006 g/ml to isolate large lipid complexes with little peptide; the second spin was done at 1.006-1.063 g/ml to isolate particles in the LDL.size and density range; the third spin at d 1.063-1.21 g/ml isolates particles in the HDL size and density range. The d>1.21 g/ml fraction was isolated to assess how much of the peptide is in the lipid-poor form. All ultracentrifugal isolations use the Beckman TL100 ultracentrifuge for rapid isolations (all fractions can be obtained within 24 hr). […]

initial PO added remained bound to the microemulsion after processing (PC:TO:CO:PO 3:2:1:0.5, centrifuged and dialyzed): 48±3%
increase in incorporation into microemulsion as compared to paclitaxel (equimolar amounts added to initial lipid mixture (FIG. 14A)): 4-5 fold
initial PO concentration at which incorporation appears to saturate (varying PO in the initial lipid mixture (FIG. 13)): around 0.33 mg/mL
Compound: CCCCCCCC/C=C\CCCCCCCC(=O)O[C@@H](C(=O)O[C@H]1C[C@@]2(O)[C@@H](OC(=O)c3ccccc3)[C@@H]3[C@]4(OC(C)=O)CO[C@@H]4C[C@H](O)[C@@]3(C)C(=O)[C@H](OC(C)=O)C(=C1C)C2(C)C)[C@@H](NC(=O)c1ccccc1)c1ccccc1 [Paclitaxel oleate]
HeLa cell killing [1]: ineffective
SF-767 cell killing [2]: ineffective

Compound: DWLKAFYDKVAEKLKEAFRLTRKRGLKLA [18-A chimera]
added synthetic peptide remaining associated with the lipid emulsions [3]: Approximately 85%
percent bound peptide (peptide that remains associated with the lipid micelles) [4]: 33%
density distribution (percent) of 18-A chimera ([5]; d 1.063-1.21 g/ml (size and density range of HDL, small lipid particles)): 58%
density distribution (percent) of 18-A chimera ([5]; d < 1.063 g/ml): 13%
density distribution (percent) of 18-A chimera ([5]; d > 1.21 g/ml (lipid-poor)): 29%

Compound: PALEDLRQGLLPRLTRKRGLKL [11-A chimera]
percent bound peptide (peptide that remains associated with the lipid micelles) [4]: 15%

Compound: YKLEGTTRLTRKRGLKLATALS [B-peptide, reference compound]
percent bound peptide (peptide that remains associated with the lipid micelles) [4]: 8%
